Where two headings read alike, the source gives them in different places.
What was measured:
[1] = for Carbamidomethy C147, VDGEICYVSCQNVK (SEQ ID NO: 18) / Carbamidomethy C151, VDGEICYVSCQNVK (SEQ ID NO: 18): artificial carbamidomethylation by iodoacetamide
[2] = post-translational modification (PTM) analysis by LC/MS/MS peptide mapping; format: physicochemical; conditions: non-stress
Method: Studies were performed to identify residues of SG-11 particularly susceptible to PTMs using LC/MS/MS. The analysis was performed by LakePharma (Belmont, Calif.) to 1) confirm the amino acid sequence of SG11 (SEQ ID NO-9), and 2) determine any post-translational modification which could lead to reduced biological activity and immunogenicity, particularly deamidation and oxidation.
For peptide mapping and PTM analysis, samples were treated with DTT and IAA, followed by trypsin digestion. The digested sample was then analyzed by Waters ACQUITY UPLC coupled to Xevo G2-XS QTOF mass spectrometer using a Protein BEH C18 column.

[3] = tested on: HCT8 enterocyte and HT29-MTX goblet cell lines; test: Oris Cell Migration assay (epithelial cell wound healing); format: cell-based, human; conditions: 48 hours; SG-11 1 μg/ml, EGF 30 ng/ml, staurosporine 100 nM; FIG. 2
Text: The 96 well Oris Cell Migration assay containing plugs preventing cell attachment in the center of each well was used according to the manufacturer's instructions (Platypus Technologies. Madison, Wis.).
The migration assay plates were warmed to room temperature prior to use and plugs were removed rom 100% confluence wells prior to cell addition. The HCT8 enterocyte and HT29-MTX goblet cell lines were used at a 9:1 ratio with a total of 5×10^4 total cells added per well (4.5×10^4 HCT8 cells and 0.5×10^4 HT29-MTX cells). Cells were incubated at 37° C.+5% CO2 for 24 hours. Plugs were then removed from all control and sample wells. Control wells included cells treated with the diluent vehicle as the blank, 30 ng/ml epidermal growth factor (EGF) as the positive control, and 100 nM staurosporine as the negative control, all diluted in cRPMI. Sample wells contained SG-11 protein (SEQ ID NO:9) at a concentration of 1 μg/ml diluted in eRPMI. 100% and 0% wells were cultured in cRPMI. […] The green fluorescent viability dye Calcenin AM was added to all wells at a concentration of 0.5 μg/min PBS containing 0.9 mM CaCl2 and 0.5 mM MgCl2, incubated for 30 min at 37° C.+5% CO2, the dye was removed and cells were washed in PBS containing 0.9 mM CaCl2 and 0.5 mM MgCl2, and fluorescence was measured. […] Samples were normalized between 100% and 0% samples and values expressed as a percent growth.

[4] = normalized to corresponding precursor
[5] = normalized to total peptide ion intensity

B1: SG-11: Roseburia hominis protein comprising SEQ ID NO:3; tested as SEQ ID NO:5, SEQ ID NO:7 or FLAG-tagged SEQ ID NO:9 (protein, listed as Rosburia hominis)
chain: LEGEESVVYVGKKGVIASLDVETLDQSYYDETELKSYVDAEVEDYTAEHGKNAVKVESLKVEDGVAKLKMKYKTPEDYTAFNGIELYQGKVVASLAAGYVYDGEFARVEEGKVVGAATKQDIYSEDDLKVAIIRANTDVKVDGEICYVSCQNVKLTGKDSVSIRDGYYLETGSVTASVDVTGQESVGTEQLSGTEQMEMTGEPVNADDTEQTEAAAGDGSFETDVYTFIVYK
[1]; 4° C., 2 weeks, 1 mg/ml
  aggregates (SEC-HPLC): low level of aggregates
[1]; 37° C., 2 weeks, 1 mg/ml
  aggregation (SEC-HPLC): major aggregation occurred
[1]; 40° C. for two weeks
  Deamdation N206, GYYLETGSV...TFIVYK (SEQ ID NO: 29): 3.62%
  Deamidation N83, TPEDYTAFNGIELYQGX (SEQ ID NO: 26): 99.88%
  Deamidation N83 Deamidation Q89, TPEDYTAFNGIELYQGX (SEQ ID NO: 26): 0.12%
  Deamidation N137, ANTDVK (SEQ ID NO: 27): 14.61%
  Deamidation N153, VDGEICYVSCQNVK (SEQ ID NO: 18): 0%
  Deamidation Q30, GVIASLDVETLDQSYYDETELK (SEQ ID NO: 25): 0.09%
  Deamidation Q152 Deamidation N153 Carbamidomethy C151, VDGEICYVSCQNVK (SEQ ID NO: 18): 3.1%
  No modification, ANTDVK (SEQ ID NO: 27): 85.39%
  No modification, GVIASLDVETLDQSYYDETELK (SEQ ID NO: 25): 99.91%
  No modification, GYYLETGSVTASVDVTGQESVGTEQLSGTEQMEMTGEPVNADDTEQTEAAAGDGSFETDVYTFIVYK (SEQ ID NO: 29): 96.38%
  No modification, MLEGEESVVYVGK (SEQ ID NO: 24): 99.82%
  No modification, TPEDYTAFNGIELYQGX (SEQ ID NO: 26): 0%
  No modification, VDGEICYVSCQNVK (SEQ ID NO: 18): 44.85%
  Oxidation M2.00, GYYLETGSV...TFIVYK (SEQ ID NO: 29): 0%
  Oxidation M198, GYYLETGSV...TFIVYK (SEQ ID NO: 29): 0%
  Oxidation of M, MLEGEESVVYVGK (SEQ ID NO: 24): 0.18%
  Carbamidomethy C147, VDGEICYVSCQNVK (SEQ ID NO: 18): 33.59%
  Carbamidomethy C151, VDGEICYVSCQNVK (SEQ ID NO: 18): 18.45%
[1]; Freeze and thaw (6 cycles) −80° C. to room temperature
  Observation of solution: clear
[1]; Mechanical stress: 350 rpm shake, 4° C., 24 hr
  Observation of solution: clear
[1]; No treatment
  Deamdation N206, GYYLETGSV...TFIVYK (SEQ ID NO: 29): 0%
  Deamidation N53, NAVK (SEQ ID NO 30): 7.84%
  Deamidation N83, TPEDYTAFNGIELYQGX (SEQ ID NO: 26): 17.43%
  Deamidation N83 Deamidation Q89, TPEDYTAFNGIELYQGX (SEQ ID NO: 26): 0%
  Deamidation N137, ANTDVK (SEQ ID NO: 27): 1.04%
  Deamidation N153, VDGEICYVSCQNVK (SEQ ID NO: 18): 0.02%
  Deamidation Q30, GVIASLDVETLDQSYYDETELK (SEQ ID NO: 25): 0%
  Deamidation Q152 Deamidation N153 Carbamidomethy C151, VDGEICYVSCQNVK (SEQ ID NO: 18): 0%
  No modification, ANTDVK (SEQ ID NO: 27): 98.96%
  No modification, GVIASLDVETLDQSYYDETELK (SEQ ID NO: 25): 100%
  No modification, GYYLETGSV...TFIVYK (SEQ ID NO: 29): 100%
  No modification, MLEGEESVVYVGK (SEQ ID NO: 24): 99.78%
  No modification, TPEDYTAFNGIELYQGX (SEQ ID NO: 26): 82.57%
  No modification, VDGEICYVSCQNVK (SEQ ID NO: 18): 99.98%
  Oxidation M2.00, GYYLETGSV...TFIVYK (SEQ ID NO: 29): 0%
  Oxidation M198, GYYLETGSV...TFIVYK (SEQ ID NO: 29): 0%
  Oxidation of M, MLEGEESVVYVGK (SEQ ID NO: 24): 0.22%
[1]; Oxidation (H2O2)
  Deamdation N206, GYYLETGSV...TFIVYK (SEQ ID NO: 29): 0%
  Deamidation N83, TPEDYTAFNGIELYQGX (SEQ ID NO: 26): 37%
  Deamidation N83 Deamidation Q89, TPEDYTAFNGIELYQGX (SEQ ID NO: 26): 0%
  Deamidation N137, ANTDVK (SEQ ID NO: 27): 16.44%
  Deamidation N153, VDGEICYVSCQNVK (SEQ ID NO: 18): 0%
  Deamidation Q30, GVIASLDVETLDQSYYDETELK (SEQ ID NO: 25): 0.07%
  Deamidation Q152 Deamidation N153 Carbamidomethy C151, VDGEICYVSCQNVK (SEQ ID NO: 18): 0.31%
  No modification, ANTDVK (SEQ ID NO: 27): 83.56%
  No modification, GVIASLDVETLDQSYYDETELK (SEQ ID NO: 25): 99.93%
  No modification, GYYLETGSV...TFIVYK (SEQ ID NO: 29): 19.17%
  No modification, MLEGEESVVYVGK (SEQ ID NO: 24): 99.88%
  No modification, TPEDYTAFNGIELYQGX (SEQ ID NO: 26): 63%
  No modification, VDGEICYVSCQNVK (SEQ ID NO: 18): 63.23%
  Oxidation M2.00, GYYLETGSV...TFIVYK (SEQ ID NO: 29): 63.9%
  Oxidation M198, GYYLETGSV...TFIVYK (SEQ ID NO: 29): 16.92%
  Oxidation of M, MLEGEESVVYVGK (SEQ ID NO: 24): 0.12%
  Carbamidomethy C147, VDGEICYVSCQNVK (SEQ ID NO: 18): 34.52%
  Carbamidomethy C151, VDGEICYVSCQNVK (SEQ ID NO: 18): 1.93%
[1]; Oxidation: Hydroperoxide (0.005%) 40° C., 16 hr
  Observation of solution: clear
[1]; Temperature (2 weeks) 4° C.
  Observation of solution: clear
[1]; Temperature (2 weeks) 25° C.
  Observation of solution: clear
[1]; Temperature (2 weeks) 37° C.
  Observation of solution: clear
[1]; Temperature (2 weeks) 40° C.
  Observation of solution: clear
[1]; pH 4 and pH 9
  Observation of solution: clear
[1]; pH 9
  Deamdation N206, GYYLETGSV...TFIVYK (SEQ ID NO: 29): 11.84%
  Deamidation N83, TPEDYTAFNGIELYQGX (SEQ ID NO: 26): 19.1%
  Deamidation N83 Deamidation Q89, TPEDYTAFNGIELYQGX (SEQ ID NO: 26): 0%
  Deamidation N137, ANTDVK (SEQ ID NO: 27): 23.95%
  Deamidation N153, VDGEICYVSCQNVK (SEQ ID NO: 18): 0.35%
  Deamidation Q30, GVIASLDVETLDQSYYDETELK (SEQ ID NO: 25): 0.05%
  Deamidation Q152 Deamidation N153 Carbamidomethy C151, VDGEICYVSCQNVK (SEQ ID NO: 18): 28%
  No modification, ANTDVK (SEQ ID NO: 27): 76.05%
  No modification, GVIASLDVETLDQSYYDETELK (SEQ ID NO: 25): 99.95%
  No modification, GYYLETGSV...TFIVYK (SEQ ID NO: 29): 88.16%
  No modification, MLEGEESVVYVGK (SEQ ID NO: 24): 99.94%
  No modification, TPEDYTAFNGIELYQGX (SEQ ID NO: 26): 80.9%
  No modification, VDGEICYVSCQNVK (SEQ ID NO: 18): 8.76%
  Oxidation M2.00, GYYLETGSV...TFIVYK (SEQ ID NO: 29): 0%
  Oxidation M198, GYYLETGSV...TFIVYK (SEQ ID NO: 29): 0%
  Oxidation of M, MLEGEESVVYVGK (SEQ ID NO: 24): 0.61%
  Carbamidomethy C147, VDGEICYVSCQNVK (SEQ ID NO: 18): 71.71%
  Carbamidomethy C151, VDGEICYVSCQNVK (SEQ ID NO: 18): 12.45%
[2]; [4]
  Deamidation N83 (peptide TPEDYTAFNGIELYQGK), % peptide: 3.77%
  Deamidation N137 (peptide ANTDVK), % peptide: 1.03%
  Deamidation N153 (peptide VDGEICYVSCQNVK), % peptide: 0.2%
[2]; normalized to total intensity of corresponding precursor with or without modification
  Deamidation N53 (peptide NAVK), % peptide: 7.84%
[2]; [5]
  Deamidation N53 (peptide NAVK), % total ion: 0.01%
  Deamidation N83 (peptide TPEDYTAFNGIELYQGK), % total ion: 0.25%
  Deamidation N137 (peptide ANTDVK), % total ion: 0.25%
  Deamidation N153 (peptide VDGEICYVSCQNVK), % total ion: 0.01%
  Oxidation M1 (peptide MLEGEESVVYVGK), % total ion: <0.01%
[3]
  percent growth (epithelial cell wound healing): significant increase in growth

From patent US20210380994A1, “LACTOCOCCUS LACTIS EXPRESSION SYSTEM FOR DELIVERING PROTEINS EFFICACIOUS FOR THE TREATMENT OF EPITHELIAL BARRIER FUNCTION DISORDERS” (Second Genome, Inc., priority 2018, published 2021)
